This note sets out measurements from paper PMC11931385, “Structural and functional analysis of cancer-associated missense variants in the retinoblastoma protein pocket domain” (The Journal of Biological Chemistry, 2025).

Experiment in all cases: fluorescence polarisation; 25 °C; unlabeled Rb^P titrated against 1.5 nM TMR-E2F1^TD or 7.5 nM TMR-E7^LxCxE; 25 mM Tris pH 8.0, 200 mM NaCl, 1 mM DTT, 0.1% Tween-20; 2 min incubation; quadratic fit; apparent Kd for the variants, Kd for WT
Common to all, as to details: both partners purified

For one assay, the target named is T1, Rb^P M546I (human, UniProt P06400 380-788, M546I).
T1 construct: also called variant 25
T1 sequence (looked up): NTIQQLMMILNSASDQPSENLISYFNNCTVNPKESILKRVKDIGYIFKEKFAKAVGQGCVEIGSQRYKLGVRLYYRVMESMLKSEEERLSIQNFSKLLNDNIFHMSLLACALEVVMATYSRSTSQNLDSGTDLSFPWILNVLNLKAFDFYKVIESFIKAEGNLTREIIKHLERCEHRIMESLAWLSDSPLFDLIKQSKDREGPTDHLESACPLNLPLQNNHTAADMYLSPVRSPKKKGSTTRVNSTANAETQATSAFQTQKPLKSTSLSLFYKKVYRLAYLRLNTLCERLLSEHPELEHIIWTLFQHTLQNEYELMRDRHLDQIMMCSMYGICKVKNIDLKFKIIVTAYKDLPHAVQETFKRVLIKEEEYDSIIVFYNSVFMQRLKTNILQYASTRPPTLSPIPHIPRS

The next assay addresses T2, Rb^P K462T (human, UniProt P06400 380-788, K462T).
T2 construct: also called variant 9
T2 sequence (looked up): T1 sequence (looked up) with K83T, I167M

The next assay addresses T3, Rb^P I679F (human, UniProt P06400 380-788, I679F).
T3 construct: also called variant 57
T3 sequence (looked up): T1 sequence (looked up) with I167M, I300F

Another assay concerns the target T4, Rb^P S588F (human, UniProt P06400 380-788, S588F).
T4 construct: also called variant 34
T4 sequence (looked up): T1 sequence (looked up) with I167M, S209F

The target of a further assay is T5, Rb^P R621S (human, UniProt P06400 380-788, R621S).
T5 construct: also called variant 44
T5 sequence (looked up): T1 sequence (looked up) with I167M, R242S

Changes are numbered by the printed parent chain. In names and notes the source's numbering stands. No end group written: not given here. TMR = tetramethyl rhodamine dye

B1: TMR-E2F1^TD, peptide of the E2F1 transactivation domain (peptide)
peptide: {TMR}-GEGIRDLFDCDFGDLTPLD
notes: also called E2F^TD; source: synthetic peptide, bought: GenScript
Take B1: the Kd in the assay with Rb^P M546I is 13 nM; with Rb^P K462T, 30 nM; with Rb^P I679F, 17 nM; with Rb^P S588F, 36 nM; with Rb^P R621S, 21 nM.

B2: TMR-E7^LxCxE, LxCxE peptide of the E7 oncoprotein from HPV (peptide)
peptide: DLYCYEQLN
modifications: also: TMR label, position not given here
notes: source: synthetic peptide, bought: GenScript
As to B2, the Kd with Rb^P M546I is 7 nM; with Rb^P K462T, 8 nM; in the assay with Rb^P I679F, 11 nM; with Rb^P S588F, 5 nM; with Rb^P R621S it was 6 nM.
